Source: patent publication US20190211400A1

Target: death receptor (DR) 3 on mouse mucosal CD4+ T cells (mouse)
Assay: cell-based or functional assay

For “TL1A added to mouse MLN and LP mononuclear cell cultures (from UniProt Q5UBV8 76-252) (ligand)”, the numbers of IFN-gamma producing CD4+ cells (intracellular staining of LPMC, without vs. with TL1A) was 1 and the numbers of IL-17-producing CD4+ cells (intracellular staining of LPMC, without vs. with TL1A) was 0.89.
